Data as given in US20260265379A1 (IMCHECK THERAPEUTICS, published 2026).

B1: bsAb048 (bispecific antibody)
heavy 1: EIVLTQSPGTLSLSPGERATLSCRASQRVSSSYLAWYQQKPGQAPRLLIYDASSRATGIPDRFSGSGSGTDFTLTISRLEPEDFAVYYCQQYGSLPWTFGQGTKVEIKGGGGSGGGGSGGGGSGGGGSEVQLVESGGGLVQPGGSLRLSCAASGFTFSRYWMSWVRQAPGKGLEWVANIKQDGSEKYYVDSVKGRFTISRDNAKNSLYLQMNSLRAEDTAVYYCAREGGWFGELAFDYWGQGTLVTVSSGGGGSGGGGSGGGGSGGGGSQVQLVQSGAEVKKPGASVKLSCKASGYIFTRYYMYWVKQRPGQGLEWIGEINPNNGGTKFNEKFKNRATLTVDKSISTAYMELSRLRSDDTAVYYCSREDDYDGTPFAMDYWGQGTLVTVSS
heavy 2: QVQLVQSGAEVKKPGASVKLSCKASGYIFTRYYMYWVKQRPGQGLEWIGEINPNNGGTKFNEKFKNRATLTVDKSISTAYMELSRLRSDDTAVYYCSREDDYDGTPFAMDYWGQGTLVTVSS
light: not shown
notes: IgG anti-BTN3A, one scFv anti-PD-L1; not shown: IgG1 CH1-hinge-CH2-CH3
B2: bsAb050 (bispecific antibody)
heavy 1: EVQLVESGGGLVQPGGSLRLSCAASGFTFSRYWMSWVRQAPGKGLEWVANIKQDGSEKYYVDSVKGRFTISRDNAKNSLYLQMNSLRAEDTAVYYCAREGGWFGELAFDYWGQGTLVTVSSGGGGSGGGGSGGGGSGGGGSEIVLTQSPGTLSLSPGERATLSCRASQRVSSSYLAWYQQKPGQAPRLLIYDASSRATGIPDRFSGSGSGTDFTLTISRLEPEDFAVYYCQQYGSLPWTFGQGTKVEIKGGGGSGGGGSGGGGSGGGGSQVQLVQSGAEVKKPGASVKLSCKASGYIFTRYYMYWVKQRPGQGLEWIGEINPNNGGTKFNEKFKNRATLTVDKSISTAYMELSRLRSDDTAVYYCSREDDYDGTPFAMDYWGQGTLVTVSS
heavy 2: B1 heavy 2
light: not shown
notes: as for B1
B3: bsAb003 (bispecific antibody, human IgG1, kappa)
heavy: QVQLVQSGAEVKKPGASVKLSCKASGYIFTRYYMYWVKQRPGQGLEWIGEINPNNGGTKFNEKFKNRATLTVDKSISTAYMELSRLRSDDTAVYYCSREDDYDGTPFAMDYWGQGTLVTVSSASTKGPSVFPLAPSSKSTSGGTAALGCLVKDYFPEPVTVSWNSGALTSGVHTFPAVLQSSGLYSLSSVVTVPSSSLGTQTYICNVNHKPSNTKVDKRVEPKSCDKTHTCPPCPAPEFEGGPSVFLFPPKPKDTLMISRTPEVTCVVVDVSHEDPEVKFNWYVDGVEVHNAKTKPREEQYNSTYRVVSVLTVLHQDWLNGKEYKCKVSNKALPASIEKTISKAKGQPREPQVYTLPPSREEMTKNQVSLTCLVKGFYPSDIAVEWESNGQPENNYKTTPPVLDSDGSFFLYSKLTVDKSRWQQGNVFSCSVMHEALHNHYTQKSLSLSPGGGGGSGGGGSGGGGSGGGGSEVQLVESGGGLVQPGGSLRLSCAASGFTFSRYWMSWVRQAPGKGLEWVANIKQDGSEKYYVDSVKGRFTISRDNAKNSLYLQMNSLRAEDTAVYYCAREGGWFGELAFDYWGQGTLVTVSSGGGGSGGGGSGGGGSGGGGSEIVLTQSPGTLSLSPGERATLSCRASQRVSSSYLAWYQQKPGQAPRLLIYDASSRATGIPDRFSGSGSGTDFTLTISRLEPEDFAVYYCQQYGSLPWTFGQGTKVEIK
light: not shown
notes: IgG anti-BTN3A, scFv anti-PD-L1 (VH-VL) at heavy chain C-terminus
B4: bsAb037 (bispecific antibody)
heavy 1: QVQLVQSGVEVKKPGASVKVSCKASGYTFTNYYMYWVRQAPGQGLEWMGGINPSNGGTNFNEKFKNRVTLTTDSSTTTAYMELKSLQFDDTAVYYCARRDYRFDMGFDYWGQGTTVTVSS
heavy 2: DIQMTQSPSSLSASVGDRVTITCHASQNINVWLSWYQQKPGKAPKLLIYKASNLHTGVPSRFTGSGSGTDFTFTISSLQPEDIATYYCQQGQTYPYTFGQGTKLEIKGGGGSGGGGSGGGGSGGGGSQVQLVQSGAEVKKPGASVKLSCKASGYIFTRYYMYWVKQRPGQGLEWIGEINPNNGGTKFNEKFKNRATLTVDKSISTAYMELSRLRSDDTAVYYCSREDDYDGTPFAMDYWGQGTLVTVSSGGGGSGGGGSGGGGSGGGGS
light: EIVLTQSPATLSLSPGERATLSCRASKGVSTSGYSYLHWYQQKPGQAPRLLIYLASYLESGVPARFSGSGSGTDFTLTISSLEPEDFAVYYCQHSRDLPLTFGGGTKVEIKRTVAAPSVFIFPPSDEQLKSGTASVVCLLNNFYPREAKVQWKVDNALQSGNSQESVTEQDSKDSTYSLSSTLTLSKADYEKHKVYACEVTHQGLSSPVTKSFNRGECGGGGSGGGGSGGGGSGGGGSQVQLVQSGAEVKKPGASVKLSCKASGYIFTRYYMYWVKQRPGQGLEWIGEINPNNGGTKFNEKFKNRATLTVDKSISTAYMELSRLRSDDTAVYYCSREDDYDGTPFAMDYWGQGTLVTVSSGGGGSGGGGSGGGGSGGGGSDIQMTQSPSSLSASVGDRVTITCHASQNINVWLSWYQQKPGKAPKLLIYKASNLHTGVPSRFTGSGSGTDFTFTISSLQPEDIATYYCQQGQTYPYTFGQGTKLEIK
notes: one Fab arm anti-PD-1, two scFv anti-BTN3A; not shown: IgG1 CH1-hinge-CH2-CH3; CH2-CH3 (Fc)
B5: bsAb021 (bispecific antibody)
heavy: QVQLVQSGAEVKKPGASVKLSCKASGYIFTRYYMYWVKQRPGQGLEWIGEINPNNGGTKFNEKFKNRATLTVDKSISTAYMELSRLRSDDTAVYYCSREDDYDGTPFAMDYWGQGTLVTVSSGGGGSGGGGSGGGGSGGGGSDIQMTQSPSSLSASVGDRVTITCHASQNINVWLSWYQQKPGKAPKLLIYKASNLHTGVPSRFTGSGSGTDFTFTISSLQPEDIATYYCQQGQTYPYTFGQGTKLEIKGGGGSGGGGSGGGGSGGGGSQVQLVQSGVEVKKPGASVKVSCKASGYTFTNYYMYWVRQAPGQGLEWMGGINPSNGGTNFNEKFKNRVTLTTDSSTTTAYMELKSLQFDDTAVYYCARRDYRFDMGFDYWGQGTTVTVSSASTKGPSVFPLAPSSKSTSGGTAALGCLVKDYFPEPVTVSWNSGALTSGVHTFPAVLQSSGLYSLSSVVTVPSSSLGTQTYICNVNHKPSNTKVDKRVEPKSCDKTHTCPPCPAPEFEGGPSVFLFPPKPKDTLMISRTPEVTCVVVDVSHEDPEVKFNWYVDGVEVHNAKTKPREEQYNSTYRVVSVLTVLHQDWLNGKEYKCKVSNKALPASIEKTISKAKGQPREPQVYTLPPSREEMTKNQVSLTCLVKGFYPSDIAVEWESNGQPENNYKTTPPVLDSDGSFFLYSKLTVDKSRWQQGNVFSCSVMHEALHNHYTQKSLSLSPG
light: EIVLTQSPATLSLSPGERATLSCRASKGVSTSGYSYLHWYQQKPGQAPRLLIYLASYLESGVPARFSGSGSGTDFTLTISSLEPEDFAVYYCQHSRDLPLTFGGGTKVEIKRTVAAPSVFIFPPSDEQLKSGTASVVCLLNNFYPREAKVQWKVDNALQSGNSQESVTEQDSKDSTYSLSSTLTLSKADYEKHKVYACEVTHQGLSSPVTKSFNRGEC
notes: IgG anti-PD-1, scFv anti-BTN3A
B6: bsAb034 (bispecific antibody)
heavy (part 1 of 2): B4 heavy 1
heavy (part 2 of 2): GGGGSGGGGSGGGGSGGGGSQVQLVQSGAEVKKPGASVKLSCKASGYIFTRYYMYWVKQRPGQGLEWIGEINPNNGGTKFNEKFKNRATLTVDKSISTAYMELSRLRSDDTAVYYCSREDDYDGTPFAMDYWGQGTLVTVSSGGGGSGGGGSGGGGSGGGGSDIQMTQSPSSLSASVGDRVTITCHASQNINVWLSWYQQKPGKAPKLLIYKASNLHTGVPSRFTGSGSGTDFTFTISSLQPEDIATYYCQQGQTYPYTFGQGTKLEIK
heavy: B6 heavy (part 2 of 2)
light: B5 light
notes: as for B4

target: T1, BTN3A1 at the surface of HEK-BTN3A1 cells (human, UniProt O00481 30-513); test: flow cytometry, HEK-BTN3A1 cells
T1 construct: HEK 293T BTN2A/BTN3A KO cells transduced with a BTN3A1 expressing vector
T1 sequence (O00481 30-513 limits assumed): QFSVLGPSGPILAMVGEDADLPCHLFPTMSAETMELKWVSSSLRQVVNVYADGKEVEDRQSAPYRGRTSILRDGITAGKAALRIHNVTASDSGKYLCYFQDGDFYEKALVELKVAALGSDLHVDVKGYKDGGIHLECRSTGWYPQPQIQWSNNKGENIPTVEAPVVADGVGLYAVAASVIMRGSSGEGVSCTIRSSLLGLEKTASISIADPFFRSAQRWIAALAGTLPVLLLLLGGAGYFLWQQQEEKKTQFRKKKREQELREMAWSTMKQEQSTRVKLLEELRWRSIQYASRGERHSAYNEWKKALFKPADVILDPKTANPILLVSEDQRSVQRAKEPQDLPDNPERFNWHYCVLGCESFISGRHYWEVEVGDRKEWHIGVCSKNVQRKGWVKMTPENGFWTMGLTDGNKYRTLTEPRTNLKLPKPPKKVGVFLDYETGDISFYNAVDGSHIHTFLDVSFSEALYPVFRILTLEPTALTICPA

Row | MFI at 10 nM [MFI] | MFI at 100 nM [MFI] | Binder
1 | 592000 | 1.02e+06 | B1
2 | 535000 | 1.2e+06 | B2
3 | 500000 | 950000 | B3
4 | 585000 | 1.25e+06 | B4
5 | 816000 | 944000 | B5
6 | 706000 | 1.24e+06 | B6

target: T2, PD-L1 at the surface of transduced cells (UniProt Q9NZQ7 19-290, limits assumed); test: flow cytometry, CHO-PD-L1 cells
T2 construct: whole, on cells; CHO-PD-L1 cells in flow cytometry, Raji-PD-L1 cells in the reporter assay; also called CHO-PD-L1; Raji-PD-L1
T2 sequence (Q9NZQ7 19-290 limits assumed): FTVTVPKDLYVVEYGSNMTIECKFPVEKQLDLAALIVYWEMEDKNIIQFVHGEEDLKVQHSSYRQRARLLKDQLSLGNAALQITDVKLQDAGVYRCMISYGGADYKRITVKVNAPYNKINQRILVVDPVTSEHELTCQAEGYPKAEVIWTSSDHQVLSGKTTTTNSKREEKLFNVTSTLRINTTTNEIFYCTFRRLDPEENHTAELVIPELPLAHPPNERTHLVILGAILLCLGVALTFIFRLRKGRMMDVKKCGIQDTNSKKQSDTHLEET

Row | MFI at 10 nM [MFI] | MFI at 100 nM [MFI] | Binder
7 | 1.18e+06 | 1.36e+06 | B1
8 | 1.18e+06 | 1.32e+06 | B2
9 | 722000 | – | B3

target: T3, PD-1 at the surface of Jurkat-PD-1 cells (human, UniProt Q15116 25-288); test: flow cytometry, Jurkat-PD-1 cells
T3 construct: whole, on cells
T3 sequence (Q15116 25-288): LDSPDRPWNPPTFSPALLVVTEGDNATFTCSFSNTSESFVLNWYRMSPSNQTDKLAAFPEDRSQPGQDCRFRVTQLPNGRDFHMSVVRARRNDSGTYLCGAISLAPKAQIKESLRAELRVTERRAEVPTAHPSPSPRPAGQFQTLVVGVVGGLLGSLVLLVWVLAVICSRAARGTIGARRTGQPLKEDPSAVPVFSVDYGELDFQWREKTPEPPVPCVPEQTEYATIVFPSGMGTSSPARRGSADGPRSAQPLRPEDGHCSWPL

Row | MFI at 10 nM [MFI] | MFI at 100 nM [MFI] | Binder
10 | 238000 | 270000 | B4
11 | 186000 | 275000 | B5
12 | 210000 | 381000 | B6

target: T2, PD-L1 at the surface of transduced cells; test: cell-based or functional assay

Row | Jurkat-PD-1 activation at 10 nM | Jurkat-PD-1 activation at 100 nM | Binder
13 | 7.4 fold-change to medium | 8.9 fold-change to medium | B1
14 | 6.9 fold-change to medium | 7.8 fold-change to medium | B2
15 | 8.5 fold-change to medium | 6.9 fold-change to medium | B3

target: T4, recombinant human PD-1 (human, UniProt Q15116 25-167, limits assumed); test: SPR
T4 construct: Soluble antigen in SPR; also called rhPD-1
Method: (§1) SPR measures the interactions between two or more biomolecules. In capture kinetics analysis, an antibody is immobilized onto a gold-plated prism. The immobilized antibody is referred to as the ligand. An injection of antigen, referred to as the analyte, is carried out, often as a concentration series. The captured analytes are removed from the sensor chip surface using a regenerating agent, for example a low pH or high ionic strength solution. If investigating binding to several analytes, the antibodies are recaptured from solution before each analyte titration series. The instrument records the changes in refractive indexes (due to the accumulation or depletion of mass) in time and plots the results as sensorgrams.
(§2) Affinity measurements with respect to BTN3A, PD-1 and PD-L1 were performed by SPR technology, for instance in a Carterra LSA Platform instrument using a soluble form of the antigen as the analyte and the antibody as the ligand. Binding was also assessed through in cellulo binding assays, on cell lines (e.g. HEK293T cells) genetically modified to express the targets of interest or genetically modified to extinct target expression.
(§3) The 69 produced bsAbs and control mAbs were also evaluated for their binding affinity to recombinant proteins by SPR assays. The equilibrium dissociation constant (KD) was then calculated for constructs showing detectable binding.

T4 sequence (Q15116 25-167 limits assumed): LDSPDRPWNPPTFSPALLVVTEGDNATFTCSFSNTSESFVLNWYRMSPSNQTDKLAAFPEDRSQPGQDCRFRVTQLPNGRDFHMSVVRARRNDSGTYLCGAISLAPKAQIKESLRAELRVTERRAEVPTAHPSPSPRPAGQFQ

Row | Kd [nM] | Binder
16 | 1.1 | B4
17 | 1.5 | B5
18 | 1.9 | B6

target: T5, recombinant human BTN3A1 (human, UniProt O00481 30-254); test: SPR
T5 construct: Soluble form of the antigen used in SPR; also called rhBTN3A1; recombinant BTN3A1 protein
Method: as §1, §2, §3

T5 sequence (O00481 30-254 limits assumed): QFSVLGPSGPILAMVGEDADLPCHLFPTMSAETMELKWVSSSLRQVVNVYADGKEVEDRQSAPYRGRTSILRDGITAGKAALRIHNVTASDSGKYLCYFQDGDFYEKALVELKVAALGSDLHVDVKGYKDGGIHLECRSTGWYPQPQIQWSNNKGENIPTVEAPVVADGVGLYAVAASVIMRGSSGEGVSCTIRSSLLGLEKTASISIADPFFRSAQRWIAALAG

Row | Kd [nM] | Binder
19 | 0.08 | B1
20 | 0.08 | B2
21 | 0.073 | B3
22 | 0.086 | B4
23 | 0.068 | B5
24 | 0.167 | B6
